Data reported in US20250367120A1, “PHARMACEUTICAL COMPOSITION AND METHOD FOR PRODUCING SAME” (SUNSHO PHARMACEUTICAL CO., LTD., priority 2022, published 2025).

Assay: Area under the curve (AUC) and increase ratio (ER) of FD-4 in plasma after oral administration to Wistar rats
Protocol: Next, FD-4 was orally administered to Wistar rats using an oral sonde so that the dosage was 0.3 mg/kg. After the administration of the sample, blood was collected six times in total until six hours after the administration of the sample, and plasma was fractionated.
It is noted that “AUCt” is AUC (ng·h/mL) of the test preparation, and “dosage t” is dosage (mg/kg) of the test preparation (target data of the test preparation obtained in the above 2).

In the case of “fluorescein isothiocyanate-dextran 4 [Comparative Example 4]”, the AUC (Wistar rats, FD-4 dosage 0.3 mg/kg, up to 6 hr, linear trapezoidal method) was 24.3 ng·h/mL, the “AUCs (reference data of standard preparation)” value (rat, FD-4 dosage 0.3 mg/kg) was 24.3 ng·h/mL and the AUC (rat, FD-4 dosage 5.0 mg/kg) was 390.5 ng·h/mL.
